{"source": "paper PMC3359993", "about": "“Polydnavirus Ank Proteins Bind NF-κB Homodimers and Inhibit Processing of Relish” (PLoS Pathogens, 2012)", "binders": {"B1": {"name": "Relish, truncated (RHD, NLS and 20 additional C-terminal residues), StrepTagII-tagged (domain or fragment)", "chain": "KHVPQLRIVEQPVEKFRFRYKSEMHGTHGSLNGANSKRTPKTFPEVTLCNYDGPAVIRCSLFQTNLDSPHSHQLVVRKDDRDVCDPHDLHVSKERGYVAQFINMGIIHTAKKYIFEELCKKKQDRLVFQMNRRELSHKQLQELHQETEREAKDMNLNQVRLCFEAFKIEDNGAWVPLAPPVYSNAINNRKSAQTGELRIVRLSKPTGGVMGNDELILLVEKVSKKNIKVRFFEEDEDGETVWEAYAKFRESDVHHQYAIVCQTPPYKDKDVDREVNVYIELIRPSDDERSFPALPFRYKPRSVIVSRKRRRTGSSANSSSSGTESSNNSLD", "modifications": "Limits come from the Table S1 cactus primers. The forward primer, after the LIC extension …, encodes WEQFYQQN. The reverse primer encodes DTKMYDRF followed by a stop. Positions were …"}, "B2": {"name": "Dorsal, truncated (RHD, NLS and 20 additional C-terminal residues), StrepTagII-tagged (domain or fragment)", "chain": "PYVKITEQPAGKALRFRYECEGRSAGSIPGVNSTPENKTYPTIEIVGYKGRAVVVVSCVTKDTPYRPHPHNLVGKEGCKKGVCTLEINSETMRAVFSNLGIQCVKKKDIEAALKAREEIRVDPFKTGFSHRFQPSSIDLNSVRLCFQVFMESEQKGRFTSPLPPVVSEPIFDKKAMSDLVICRLCSCSATVFGNTQIILLCEKVAKEDISVRFFEEKNGQSVWEAFGDFQHTDVHKQTAITFKTPRYHTLDITEPAKVFIQLRRPSDGVTSEALPFEYVPMDSDPAHLRRKRQKTGGDPMHLLLQQQQKQQLQN", "modifications": "Limits come from the Table S1 cactus primers. The forward primer, after the LIC extension …, encodes WEQFYQQN. The reverse primer encodes DTKMYDRF followed by a stop. Positions were …"}, "B3": {"name": "Cactus, truncated form consisting of its ankyrin repeat domain, N-terminal His tag (domain or fragment)", "chain": "WEQFYQQNDDGDTPLHLACISGSVDVVAALIRMAPHPCLLNIQNDVAQTPLHLAALTAQPNIMRILLLAGAEPTVRDRHGNTALHLSCIAGEKQCVRALTEKFGATEIHEAHRQYGHRSNDKAVSSLSYACLPADLEIRNYDGERCVHLAAEAGHIDILRILVSHGADINAREGKSGRTPLHIAIEGCNEDLANFLLDECEKLNLETATYAGLTAYQFACIMNKSRMQNILEKRGAETVTPPDSDYDSSDIEDLDDTKMYDRF", "modifications": "Limits come from the Table S1 cactus primers. The forward primer, after the LIC extension …, encodes WEQFYQQN. The reverse primer encodes DTKMYDRF followed by a stop. Positions were …"}, "B4": {"name": "Dif, truncated (RHD, NLS and 20 additional C-terminal residues), N-terminal thioredoxin fusion (domain or fragment)", "chain": "PHLRIVEEPTSNIIRFRYKCEGRTAGSIPGMNSSSETGKTFPTIEVCNYDGPVIIVVSCVTSDEPFRQHPHWLVSKEEADACKSGIYQKKLPPEERRLVLQKVGIQCAKKLEMRDSLVERERRNIDPFNAKFDHKDQIDKINRYELRLCYQAFITVGNSKVPLDPIVSSPIYGKSSELTITRLCSCAATANGGDEIIMLCEKIAKDDIEVRFYETDKDGRETWFANAEFQPTDVFKQMAIAFKTPRYRNTEITQSVNVELKLVRPSDGATSAPLPFEYYPNPELLTKHNRRVAQKTVESLKRSLMSTNLHPSKQV"}, "B5": {"name": "Dif, truncated (RHD, NLS and 20 additional C-terminal residues), StrepTagII-tagged (domain or fragment)", "chain": "PHLRIVEEPTSNIIRFRYKCEGRTAGSIPGMNSSSETGKTFPTIEVCNYDGPVIIVVSCVTSDEPFRQHPHWLVSKEEADACKSGIYQKKLPPEERRLVLQKVGIQCAKKLEMRDSLVERERRNIDPFNAKFDHKDQIDKINRYELRLCYQAFITVGNSKVPLDPIVSSPIYGKSSELTITRLCSCAATANGGDEIIMLCEKIAKDDIEVRFYETDKDGRETWFANAEFQPTDVFKQMAIAFKTPRYRNTEITQSVNVELKLVRPSDGATSAPLPFEYYPNPELLTKHNRRVAQKTVESLKRSLMSTNLHP", "modifications": "homodimer by gel filtration; StrepTagII left out. Limits: RHD start 78 and NLS end 368 from UniProt features, plus 20 residues; exact limits are only in Figure 1A"}, "B6": {"name": "Dif, truncated (RHD, NLS and 20 additional C-terminal residues), StrepTagII-tagged (domain or fragment)", "chain": "B5 chain", "modifications": "homodimer by gel filtration; StrepTagII left out. Limits: RHD start 78 and NLS end 368 from UniProt features, plus 20 residues; exact limits are only in Figure 1A / homodimer by gel filtration …"}}, "key": {"[1]": {"target": "T1, Cactus, truncated form consisting of its ankyrin repeat domain, N-terminal His tag (Drosophila melanogaster)", "T1 chain": "B3 chain", "experiment": "SPR; Biacore 3000, room temperature; IkB or Ank immobilised on CM5 by amine coupling (about 5500 RU); Rel homodimer as analyte, kinetic titration, five doubling injections (typically 160 nM to 2.56 uM), 60 or 90 s, 30 uL/min; 10 mM HEPES pH 7.4, 150 mM NaCl, 3.4 mM EDTA, 0.005% P20; 1:1 Langmuir fit", "settings": "both partners purified"}, "[2]": {"target": "T2, Dif, truncated (RHD, NLS and 20 additional C-terminal residues), StrepTagII-tagged (Drosophila melanogaster)", "T2 chain": "B5 chain", "experiment": "SPR; Biacore 3000, room temperature; Dif immobilised on CM5 by amine coupling, Cactus as analyte (Table 1); kinetic titration; 10 mM HEPES pH 7.4, 150 mM NaCl, 3.4 mM EDTA, 0.005% P20; 1:1 Langmuir fit", "settings": "both partners purified"}, "[3]": {"target": "the molecule itself", "experiment": "SEC; gel filtration of each purified recombinant protein, compared with molecular mass standards"}, "[4]": {"target": "T3, Rel-49, the C-terminal IkB domain of Relish, N-terminal StrepTagII and C-terminal His tag (Drosophila melanogaster)", "T3 construct": "Rel-49, the C-terminal IkB fragment that is left after cleavage of compound Relish (Rel-110), Drosophila, GenBank AAF54333; Cloned without a stop codon into pET51-EK-LIC; source: E. coli BL21 (DE3), purified", "T3 sequence (Q94527 whole entry, looked up)": "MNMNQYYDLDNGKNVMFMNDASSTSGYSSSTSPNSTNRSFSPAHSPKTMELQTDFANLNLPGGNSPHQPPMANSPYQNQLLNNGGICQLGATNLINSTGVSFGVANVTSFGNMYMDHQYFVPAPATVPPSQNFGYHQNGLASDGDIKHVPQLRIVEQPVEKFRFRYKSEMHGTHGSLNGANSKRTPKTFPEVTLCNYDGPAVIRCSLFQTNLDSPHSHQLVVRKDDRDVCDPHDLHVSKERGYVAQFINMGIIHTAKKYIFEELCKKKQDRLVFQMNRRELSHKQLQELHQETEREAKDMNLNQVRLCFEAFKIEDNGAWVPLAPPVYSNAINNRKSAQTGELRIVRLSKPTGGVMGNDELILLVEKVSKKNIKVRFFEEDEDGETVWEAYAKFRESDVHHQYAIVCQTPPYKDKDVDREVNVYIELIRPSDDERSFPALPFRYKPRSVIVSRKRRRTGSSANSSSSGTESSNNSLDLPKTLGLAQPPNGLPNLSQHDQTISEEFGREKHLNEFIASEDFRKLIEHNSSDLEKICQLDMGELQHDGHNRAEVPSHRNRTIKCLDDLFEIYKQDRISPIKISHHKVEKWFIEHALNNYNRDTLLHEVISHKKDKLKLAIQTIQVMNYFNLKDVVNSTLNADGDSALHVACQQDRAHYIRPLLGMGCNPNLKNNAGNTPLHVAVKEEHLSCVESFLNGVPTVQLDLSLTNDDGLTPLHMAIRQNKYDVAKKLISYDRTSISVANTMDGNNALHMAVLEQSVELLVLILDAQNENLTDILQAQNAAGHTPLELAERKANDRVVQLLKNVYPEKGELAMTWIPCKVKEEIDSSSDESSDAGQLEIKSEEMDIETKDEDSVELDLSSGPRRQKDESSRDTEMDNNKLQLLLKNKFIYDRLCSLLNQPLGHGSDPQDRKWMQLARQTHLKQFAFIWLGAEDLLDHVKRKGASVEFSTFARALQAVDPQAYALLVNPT", "experiment": "SPR; Biacore 3000, room temperature; IkB or Ank immobilised on CM5 by amine coupling (about 5500 RU); Rel homodimer as analyte, kinetic titration, five doubling injections (typically 160 nM to 2.56 uM), 60 or 90 s, 30 uL/min; 10 mM HEPES pH 7.4, 150 mM NaCl, 3.4 mM EDTA, 0.005% P20; 1:1 Langmuir fit", "settings": "both partners purified"}, "[5]": {"target": "T4, Ank-H4 of Microplitis demolitor bracovirus, full length, N-terminal His tag (Microplitis demolitor bracovirus (MdBV))", "T4 construct": "Ank-H4, Microplitis demolitor bracovirus (MdBV), GenBank AY875685; consists of only an ankyrin repeat domain; amplified from MdBV genomic DNA; pET-30-EK-LIC; source: E. coli BL21 (DE3), purified (Ni-NTA); not shown: His6, N-terminal, kept", "T4 sequence (Q5I144 whole entry, the tested form may be a part)": "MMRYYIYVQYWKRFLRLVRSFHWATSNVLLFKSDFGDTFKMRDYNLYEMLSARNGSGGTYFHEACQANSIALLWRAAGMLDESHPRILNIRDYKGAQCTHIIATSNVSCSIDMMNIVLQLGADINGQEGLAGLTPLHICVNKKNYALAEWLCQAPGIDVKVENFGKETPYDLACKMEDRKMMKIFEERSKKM", "experiment": "SPR; Biacore 3000, room temperature; IkB or Ank immobilised on CM5 by amine coupling (about 5500 RU); Rel homodimer as analyte, kinetic titration, five doubling injections (typically 160 nM to 2.56 uM), 60 or 90 s, 30 uL/min; 10 mM HEPES pH 7.4, 150 mM NaCl, 3.4 mM EDTA, 0.005% P20; 1:1 Langmuir fit", "settings": "both partners purified"}, "[6]": {"target": "T2, Dif, truncated (RHD, NLS and 20 …)", "experiment": "SEC; gel filtration of each purified recombinant protein, compared with molecular mass standards", "settings": "both partners purified"}}, "data": [{"binder": "B1", "values": [{"measurement": "Kd", "setting": "[1]", "value": 2190, "unit": "nM"}, {"measurement": "koff", "setting": "[1]", "value": 0.00241, "unit": "s⁻¹"}, {"measurement": "kon", "setting": "[1]", "value": 1100, "unit": "M⁻¹ s⁻¹"}]}, {"binder": "B2", "values": [{"measurement": "Kd", "setting": "[1]", "value": 195, "unit": "nM"}, {"measurement": "koff", "setting": "[1]", "value": 0.00193, "unit": "s⁻¹"}, {"measurement": "kon", "setting": "[1]", "value": 9890, "unit": "M⁻¹ s⁻¹"}]}, {"binder": "B3", "values": [{"measurement": "Kd", "setting": "[2]", "value": 110, "unit": "nM"}, {"measurement": "koff", "setting": "[2]", "value": 0.00578, "unit": "s⁻¹"}, {"measurement": "kon", "setting": "[2]", "value": 52500, "unit": "M⁻¹ s⁻¹"}]}, {"binder": "B4", "values": [{"measurement": "stoichiometry N", "setting": "[3]", "value": 2}]}, {"binder": "B5", "values": [{"measurement": "Kd", "setting": "[4]", "value": 1840, "unit": "nM"}, {"measurement": "koff", "setting": "[4]", "value": 0.000966, "unit": "s⁻¹"}, {"measurement": "kon", "setting": "[4]", "value": 524, "unit": "M⁻¹ s⁻¹"}, {"measurement": "Kd", "setting": "[5]", "value": 581, "unit": "nM"}, {"measurement": "koff", "setting": "[5]", "value": 0.00384, "unit": "s⁻¹"}, {"measurement": "kon", "setting": "[5]", "value": 6620, "unit": "M⁻¹ s⁻¹"}]}, {"binder": "B6", "values": [{"measurement": "stoichiometry N", "setting": "[6]", "value": 2}]}]}
